Paper PMC2935283, “Molecular recognition between Escherichia coli enolase and ribonuclease E” (Acta Crystallographica Section D: Biological Crystallography, 2010)

Biological target: the molecule itself
Assay: native MS; enolase mixed with the microdomain in a 1:1.5 molar ratio, room temperature, 20 min; nanoflow ESI, tandem nondissociating QTOF-MS/MS

B1: Escherichia coli enolase (enzyme, E. coli)
chain: MSKIVKIIGREIIDSRGNPTVEAEVHLEGGFVGMAAAPSGASTGSREALELRDGDKSRFLGKGVTKAVAAVNGPIAQALIGKDAKDQAGIDKIMIDLDGTENKSKFGANAILAVSLANAKAAAAAKGMPLYEHIAELNGTPGKYSMPVPMMNIINGGEHADNNVDIQEFMIQPVGAKTVKEAIRMGSEVFHHLAKVLKAKGMNTAVGDEGGYAPNLGSNAEALAVIAEAVKAAGYELGKDITLAMDCAASEFYKDGKYVLAGEGNKAFTSEEFTHFLEELTKQYPIVSIEDGLDESDWDGFAYQTKVLGDKIQLVGDDLFVTNTKILKEGIEKGIANSILIKFNQIGSLTETLAAIKMAKDAGYTAVISHRSGETEDATIADLAVGTAAGQIKTGSMSRSDRVAKYNQLIRIEEALGEKAPYNGRKEIKGQA
notes: enolase (EC 4.2.1.11), E. coli; overexpressed from pET11a; Purified as described in Kuhnel & Luisi, 2001; Homodimer in the crystal and by nondissociating mass spectrometry; also called enolase dimer; dimeric enolase; source: E. coli BL21 (DE3), pET11a vector, purified
- stoichiometry N: 2
